In paper PMC6336734:

Biological target: Recombinant PP35 gp156 tail spike protein (Dickeya bacteriophage PP35)
Assay: SEC

Recombinant PP35 gp156 tail spike protein (natural protein)
stoichiometry N: 3
